Test results reported in the supplement of paper PMC7125110.
± gives the standard error. Fewer inactive variants are shown than the library holds.

B1: glmS ribozyme (parent)
chain: AUAAAAGCGCCAGAACUACAGAAAUGUAGUUGACGAGGAGGAGGUUUAUCGAAUUUUCGGCGGAUGCCUCCAAA

Key:
Details in all cases: with glucosamine-6-phosphate
glucosamine-6-phosphate [1] = variants of: B1; assay: self-cleavage kobs at 40 uM GlcN6P; higher = faster cleavage; RNA array
Method in brief: (§1)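 Barcoded ribozyme variants, transcribed in situ by E. coli RNA polymerase on sequenced MiSeq chips, were followed via a hybridised Cy3 probe at 37 °C. Glucosamine-6-phosphate ranged from 40 μM to 10 mM in HEPES/KCl/Mg(OAc)2 buffer. kobs came from decay fits to per-tile medians, and kcat and KM from weighted Michaelis–Menten fits.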

glucosamine-6-phosphate [2] = variants of: B1; assay: self-cleavage kobs at 2500 uM GlcN6P; higher = faster cleavage; RNA array
Method in brief: as §1

glucosamine-6-phosphate [3] = variants of: B1; assay: self-cleavage kobs at 10000 uM GlcN6P; higher = faster cleavage; RNA array
Method in brief: as §1

glucosamine-6-phosphate [4] = variants of: B1; assay: self-cleavage kobs at 160 uM GlcN6P; higher = faster cleavage; RNA array
Method in brief: as §1

glucosamine-6-phosphate [5] = variants of: B1; assay: self-cleavage kobs at 640 uM GlcN6P; higher = faster cleavage; RNA array
Method in brief: as §1

Variant	self-cleavage kobs at 40 uM GlcN6P (glucosamine-6-phosphate [1])	self-cleavage kobs at 2500 uM GlcN6P (glucosamine-6-phosphate [2])	self-cleavage kobs at 10000 uM GlcN6P (glucosamine-6-phosphate [3])	self-cleavage kobs at 160 uM GlcN6P (glucosamine-6-phosphate [4])	self-cleavage kobs at 640 uM GlcN6P (glucosamine-6-phosphate [5])
C8G A14G U55G	< 1e-05 s⁻¹	< 1e-05 s⁻¹	< 1e-05 s⁻¹		
A36C G37U G51U	< 1e-05 s⁻¹				
C34A C50G C71U	6.66e-05 ± 3e-05 s⁻¹	0.000247 ± 0.00012 s⁻¹	6.4e-05 ± 2.5e-05 s⁻¹	0.000155 ± 6.7e-05 s⁻¹	0.000408 ± 0.0001 s⁻¹
U30G U56G C58U U69C	< 1e-05 s⁻¹				
C10U G13U	< 1e-05 s⁻¹	< 1e-05 s⁻¹	< 1e-05 s⁻¹	< 1e-05 s⁻¹	< 1e-05 s⁻¹
A6G C16G C67G	< 1e-05 s⁻¹				
G7A U47C	< 1e-05 s⁻¹			< 1e-05 s⁻¹	< 1e-05 s⁻¹
C10U U46A U49A U65C C68G	< 1e-05 s⁻¹		< 1e-05 s⁻¹		
C58A G59U G60U	< 1e-05 s⁻¹		< 1e-05 s⁻¹		
G9U C11G	< 1e-05 s⁻¹	< 1e-05 s⁻¹	< 1e-05 s⁻¹		
G32U A48U C61U G63U C67U	< 1e-05 s⁻¹		< 1e-05 s⁻¹		< 1e-05 s⁻¹
U30A U57G U65G	< 1e-05 s⁻¹				
A12G C50U G59U G60A	< 1e-05 s⁻¹		< 1e-05 s⁻¹		
C11U U30A A48G G59C A64G	< 1e-05 s⁻¹	< 1e-05 s⁻¹	< 1e-05 s⁻¹		
G7C U31C	< 1e-05 s⁻¹			< 1e-05 s⁻¹	
G40U G63U	< 1e-05 s⁻¹		< 1e-05 s⁻¹	< 1e-05 s⁻¹	
U30C G59C	< 1e-05 s⁻¹	< 1e-05 s⁻¹	< 1e-05 s⁻¹		< 1e-05 s⁻¹
C11A A39G U45A A52U	< 1e-05 s⁻¹				
A6C G7A G40A	< 1e-05 s⁻¹		< 1e-05 s⁻¹		
C58U G59C	< 1e-05 s⁻¹				
U31G U69A	2.79e-05 ± 1.1e-05 s⁻¹	0.000288 ± 7.4e-05 s⁻¹	0.000103 ± 1.4e-05 s⁻¹	9.26e-05 ± 3.7e-05 s⁻¹	0.00012 ± 3.2e-05 s⁻¹
G60A A64U	< 1e-05 s⁻¹	< 1e-05 s⁻¹			< 1e-05 s⁻¹
G41A U46G G51U	< 1e-05 s⁻¹				
G40C C67A C71A	3.18e-05 ± 1.4e-05 s⁻¹		0.000726 ± 0.00011 s⁻¹		
C11U G13C C16A U49A	< 1e-05 s⁻¹			< 1e-05 s⁻¹	< 1e-05 s⁻¹

Variant	self-cleavage kobs at 40 uM GlcN6P (glucosamine-6-phosphate [1])	self-cleavage kobs at 2500 uM GlcN6P (glucosamine-6-phosphate [2])	self-cleavage kobs at 10000 uM GlcN6P (glucosamine-6-phosphate [3])	self-cleavage kobs at 160 uM GlcN6P (glucosamine-6-phosphate [4])	self-cleavage kobs at 640 uM GlcN6P (glucosamine-6-phosphate [5])
A12C A15C A42U U57G C61G C71U	< 1e-05 s⁻¹	< 1e-05 s⁻¹		< 1e-05 s⁻¹	
C16A G35C	< 1e-05 s⁻¹	< 1e-05 s⁻¹	< 1e-05 s⁻¹	< 1e-05 s⁻¹	< 1e-05 s⁻¹
A33U G44C C68U	< 1e-05 s⁻¹		< 1e-05 s⁻¹		
G37C U45C	< 1e-05 s⁻¹			< 1e-05 s⁻¹	
C8U U54A	< 1e-05 s⁻¹	< 1e-05 s⁻¹	< 1e-05 s⁻¹	< 1e-05 s⁻¹	< 1e-05 s⁻¹
G60A G66U	< 1e-05 s⁻¹		< 1e-05 s⁻¹	< 1e-05 s⁻¹	< 1e-05 s⁻¹
C50G C58A C70U	9.84e-05 ± 1.6e-05 s⁻¹	0.000176 ± 4e-05 s⁻¹	0.000117 ± 2.1e-05 s⁻¹		
A6G G29C U45G C70G	< 1e-05 s⁻¹				
C8A A48C G59U	< 1e-05 s⁻¹		< 1e-05 s⁻¹		
C11U U45G U55A C67G C68A	6.74e-05 ± 3.3e-05 s⁻¹		5.91e-05 ± 1.9e-05 s⁻¹		
U30C G43C	< 1e-05 s⁻¹	< 1e-05 s⁻¹	< 1e-05 s⁻¹	< 1e-05 s⁻¹	< 1e-05 s⁻¹
G44A U56C G63A	< 1e-05 s⁻¹		< 1e-05 s⁻¹		
C34A G38U U69A	< 1e-05 s⁻¹				
A6G G60A U65G	< 1e-05 s⁻¹		< 1e-05 s⁻¹		
G9A C11A	< 1e-05 s⁻¹			< 1e-05 s⁻¹	
A14G A53U U55G	0.000607 ± 0.00013 s⁻¹		0.036 ± 0.013 s⁻¹		
G7A C50U	< 1e-05 s⁻¹	< 1e-05 s⁻¹	< 1e-05 s⁻¹	< 1e-05 s⁻¹	< 1e-05 s⁻¹
G43U G66C	< 1e-05 s⁻¹	< 1e-05 s⁻¹		< 1e-05 s⁻¹	
A48U C68A	< 1e-05 s⁻¹				< 1e-05 s⁻¹
U46A A52U	< 1e-05 s⁻¹			< 1e-05 s⁻¹	
A42C G59C C67G	< 1e-05 s⁻¹	< 1e-05 s⁻¹	< 1e-05 s⁻¹		
C8G G41U C71U	< 1e-05 s⁻¹		< 1e-05 s⁻¹		
A42G U55A G63C	< 1e-05 s⁻¹	< 1e-05 s⁻¹			
C8A G35C A48C G60A	< 1e-05 s⁻¹				
G7U G38A A48G G60C	< 1e-05 s⁻¹		< 1e-05 s⁻¹		

Variant	self-cleavage kobs at 40 uM GlcN6P (glucosamine-6-phosphate [1])	self-cleavage kobs at 2500 uM GlcN6P (glucosamine-6-phosphate [2])	self-cleavage kobs at 10000 uM GlcN6P (glucosamine-6-phosphate [3])	self-cleavage kobs at 160 uM GlcN6P (glucosamine-6-phosphate [4])	self-cleavage kobs at 640 uM GlcN6P (glucosamine-6-phosphate [5])
A42C U55A U57C	< 1e-05 s⁻¹				
G41A A64C	< 1e-05 s⁻¹	< 1e-05 s⁻¹	< 1e-05 s⁻¹	< 1e-05 s⁻¹	< 1e-05 s⁻¹
A36G U57A	< 1e-05 s⁻¹	< 1e-05 s⁻¹	< 1e-05 s⁻¹	< 1e-05 s⁻¹	< 1e-05 s⁻¹
G35A G44U U49A	< 1e-05 s⁻¹				
G29U U45G G59C C67U	< 1e-05 s⁻¹		< 1e-05 s⁻¹		
G35C G38U C50G C68A C70A	0.000136 ± 3.2e-05 s⁻¹		0.000258 ± 3.9e-05 s⁻¹		
A48U C61A C67U	< 1e-05 s⁻¹	< 1e-05 s⁻¹	< 1e-05 s⁻¹		
A14G U54A G59A	< 1e-05 s⁻¹	8.37e-05 ± 2.7e-05 s⁻¹	0.000121 ± 3.2e-05 s⁻¹		
G37C U57A	< 1e-05 s⁻¹		< 1e-05 s⁻¹		< 1e-05 s⁻¹
A6G C70U	< 1e-05 s⁻¹			< 1e-05 s⁻¹	
G9C G51A A52U C70G	< 1e-05 s⁻¹				< 1e-05 s⁻¹
G32A G35C C67G	< 1e-05 s⁻¹		< 1e-05 s⁻¹		
C11G C58U G59U	< 1e-05 s⁻¹		< 1e-05 s⁻¹		
A36C C50G C70U	0.000435 ± 0.00014 s⁻¹	0.00027 ± 0.0001 s⁻¹	0.000831 ± 0.00026 s⁻¹		
C8U A52U C58U A64C C70U	< 1e-05 s⁻¹	< 1e-05 s⁻¹		< 1e-05 s⁻¹	
A15U G59C A64C	< 1e-05 s⁻¹				
U31C G60U	< 1e-05 s⁻¹		< 1e-05 s⁻¹	< 1e-05 s⁻¹	
A42U U49G U57A C61G	< 1e-05 s⁻¹	< 1e-05 s⁻¹	< 1e-05 s⁻¹		< 1e-05 s⁻¹
A12C C34U G44C U56A U57A	< 1e-05 s⁻¹		< 1e-05 s⁻¹		
C8G G63A	< 1e-05 s⁻¹	< 1e-05 s⁻¹	< 1e-05 s⁻¹	< 1e-05 s⁻¹	< 1e-05 s⁻¹
C8G G63U	< 1e-05 s⁻¹		< 1e-05 s⁻¹		
C16G G35C	< 1e-05 s⁻¹	< 1e-05 s⁻¹	< 1e-05 s⁻¹		< 1e-05 s⁻¹
C16A G37U G38A U45A U55G	< 1e-05 s⁻¹		< 1e-05 s⁻¹		
U31C C34U U65C	< 1e-05 s⁻¹	< 1e-05 s⁻¹	< 1e-05 s⁻¹		
G37A C61U	< 1e-05 s⁻¹	< 1e-05 s⁻¹			< 1e-05 s⁻¹

Variant	self-cleavage kobs at 40 uM GlcN6P (glucosamine-6-phosphate [1])	self-cleavage kobs at 2500 uM GlcN6P (glucosamine-6-phosphate [2])	self-cleavage kobs at 10000 uM GlcN6P (glucosamine-6-phosphate [3])	self-cleavage kobs at 160 uM GlcN6P (glucosamine-6-phosphate [4])	self-cleavage kobs at 640 uM GlcN6P (glucosamine-6-phosphate [5])
G9U G40C	< 1e-05 s⁻¹		< 1e-05 s⁻¹	< 1e-05 s⁻¹	< 1e-05 s⁻¹
C10U C16G G29U	< 1e-05 s⁻¹				
G7A A12G	< 1e-05 s⁻¹	< 1e-05 s⁻¹	< 1e-05 s⁻¹		< 1e-05 s⁻¹
C10U G29A U47G	< 1e-05 s⁻¹				
U55G C68U	0.000294 ± 3.6e-05 s⁻¹	0.000382 ± 8.7e-05 s⁻¹	0.00508 ± 0.00094 s⁻¹	0.00035 ± 8.1e-05 s⁻¹	0.00158 ± 0.00035 s⁻¹
C58A G63U U69C	< 1e-05 s⁻¹				
U45A G59U C70G	< 1e-05 s⁻¹		< 1e-05 s⁻¹		
G7U A36G	< 1e-05 s⁻¹	< 1e-05 s⁻¹	< 1e-05 s⁻¹		< 1e-05 s⁻¹
G35C C58A G62U	< 1e-05 s⁻¹				
A15U G43U U54C G60C C70G	< 1e-05 s⁻¹		< 1e-05 s⁻¹		
G29U A48C G63U	< 1e-05 s⁻¹		< 1e-05 s⁻¹		
C34A C70U	< 1e-05 s⁻¹			< 1e-05 s⁻¹	
C8A A14G U57C	< 1e-05 s⁻¹	< 1e-05 s⁻¹			< 1e-05 s⁻¹
A39G G40A A53C	3.7e-05 ± 1.8e-05 s⁻¹		0.00139 ± 0.00041 s⁻¹		
C10G G32U C58A C70G	5.06e-05 ± 1.8e-05 s⁻¹				
A6G U56C	< 1e-05 s⁻¹		< 1e-05 s⁻¹	< 1e-05 s⁻¹	< 1e-05 s⁻¹
C10U A14C A36G G41A	< 1e-05 s⁻¹	< 1e-05 s⁻¹		< 1e-05 s⁻¹	< 1e-05 s⁻¹
G38C G43U	< 1e-05 s⁻¹	< 1e-05 s⁻¹	< 1e-05 s⁻¹	< 1e-05 s⁻¹	< 1e-05 s⁻¹
G13A G60U A64C	< 1e-05 s⁻¹				
G38U A64C	< 1e-05 s⁻¹	< 1e-05 s⁻¹	< 1e-05 s⁻¹	< 1e-05 s⁻¹	
A14U G62C	< 1e-05 s⁻¹	< 1e-05 s⁻¹			
G9U C16U A52G C67G	0.000158 ± 3.7e-05 s⁻¹		0.000546 ± 0.00017 s⁻¹		
A6C G43U C67A	< 1e-05 s⁻¹				
U31G C71A	0.000103 ± 1.4e-05 s⁻¹	0.000715 ± 0.00018 s⁻¹	0.00392 ± 0.00068 s⁻¹	0.000505 ± 0.00012 s⁻¹	0.000376 ± 8.1e-05 s⁻¹
